Target: the molecule itself
Test: cross-linking

B1: full-length rabies virus phosphoprotein (P), C-terminal His-tagged (natural protein)
chain: MSKIFVNPSAIRAGLADLEMAEETVDLINRNIEDNQAHLQGEPIEVDNLPEDMKRLHLDDEKSSNLGEMVRVGEGKYREDFQMDEGEDPNLLFQSYLDNVGVQIVRQMRSGERFLKIWSQTVEEIVSYVTVNFPNPPRRSSEDKSTQTTGRELKKETTSAFSQRESQPSKARMVAQVAPGPPALEWSATNEEDDLSVEAEIAHQIAESFSKKYKFPSRSSGIFLYNFEQLKMNLDDIVKEAKNVPGVTRLAHDGSKIPLRCVLGWVALANSKKFQLLVEADKLSKIMQDDLNRYTSC
B1: binds.

Reference: PMC7173060 (Journal of Molecular Biology, 2004)
